In US20240391977A1:

Target: human TPOR (thrombopoietin receptor, c-Mpl) expressed on BaF3/c-Mpl cells (human) (UniProt P40238)
Assay: cell-based or functional assay

EC50 (ng/ml), growth of BaF3/c-Mpl cells by CCK-8 assay; Nplate®: 8.78 ng/mL
Substance: Romiplostim (Nplate®) (Fc fusion)
